Test: HRP enzymatic activity detected with chromogenic substrate
Type: biochemical
Settings: after silk processing and collagenase digestion
Method: The release kinetics of HRP from silk fibroin microneedles into the collagen hydrogels (N=3) were determined spectroscopically. The collagen hydrogel was selectively digested with collagenase. Subsequently, a colorimetric HRP enzyme activity assay was carried out as described later in the Exemplary Materials and Methods (FIG. 9C). […] Compared to the 2 hour and 8 hour water annealed devices, the untreated silk microneedles released in the same time period about 2.7±0.18 and about 5.6±0.99 times as much HRP, respectively. The beta sheet content in the silk fiborin microneedle samples was determined, e.g., by infrared spectroscopy, with results of ˜14%, ˜18% and ˜21% for the untreated, 2 hr-annealed and 8 hr-annealed silk fibroin microneedle samples, respectively. […]
HRP release model: The silk fibroin microneedles were loaded with 1 mg/ml of HRP (Sigma Aldrich). […] The collagen or gelatin slab measured approximately 2.5 mm in height. […] The needles were pierced through Parafilm (Parafilm M, Pechiney Plastic Packaging) membranes (polymer membrane in FIG. 8A) and subsequently applied to the hydrogel slabs to quantify the HRP release. […] To quantify the total amount of HRP release from the silk fibroin microneedles, a plurality of stacks, each of which included an array of silk fibroin microneedles, a polymer membrane and a collagen hydrogel, were prepared and evaluated at multiple time points. […]

## horseradish peroxidase [HRP]
  enzymatic activity of HRP: retained activity

Source: patent US12194200B2, “Silk fibroin-based microneedles and methods of making the same” (Trustees of Tufts College, priority 2010, dated 2025)
